Experimental data reported in patent US20180057590A1 (VAL CHUM LIMITED PARTNERSHIP, published 2018).

Target: T1, human Dual Ig domain containing cell adhesion molecule (DICAM) (human, UniProt Q9BRK3 20-442)
T1 construct: Assayed as endogenous DICAM of THP-1 cells and TH17 lymphocytes, and as human DICAM from vector pCMV6-neo-DICAM in NIH3T3 and NS0 cells; It stood on the cell surface in flow cytometry and in cell lysate in Western blot; also called limitrin; Matrix-remodeling-associated protein 8
T1 sequence: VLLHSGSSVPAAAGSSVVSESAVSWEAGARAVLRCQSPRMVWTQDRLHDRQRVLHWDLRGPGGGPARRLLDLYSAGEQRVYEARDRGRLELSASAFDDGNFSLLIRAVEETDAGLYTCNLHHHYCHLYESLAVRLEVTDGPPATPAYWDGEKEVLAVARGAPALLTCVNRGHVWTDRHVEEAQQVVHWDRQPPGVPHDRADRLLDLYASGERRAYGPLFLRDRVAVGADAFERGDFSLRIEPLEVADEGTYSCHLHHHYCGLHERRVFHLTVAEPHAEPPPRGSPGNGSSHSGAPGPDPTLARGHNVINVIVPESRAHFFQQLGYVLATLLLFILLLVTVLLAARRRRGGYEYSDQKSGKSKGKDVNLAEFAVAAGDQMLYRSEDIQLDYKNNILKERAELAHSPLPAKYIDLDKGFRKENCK
Assay: Western blot (Table III)
Description: THP-1 cells express DICAM as determined by qPCR and confirmed by WB (see Jung et al., Journal of Bone and Mineral Research, Vol. 27, No. 9, pp 2024-2034, 2012). THP-1 cell lysate (30 μg) were loaded on 12% SDS-PAGE gel and electrophoresed for 90 min at 100V and transferred to PVDF membranes. Hybridoma from clone 3C2, 2C11, 2H12, 9E9 and 1B2 (N-terminal DICAM epitope 57-71) or from clone 7F8, 1D9, 4B8 and 1D4 (C-terminal DICAM epitope 372-385) were incubated at 4° C. (50 μg/ml) for 12 h. Secondary antibody is goat anti-mouse pan-IgG coupled to HRP (1/2000 dilution). Actin is shown as a loading control. N=4
Characterization of anti-DICAM antibodies by Western blot THP-1 and NIH3T3 cells transfected with human DICAM-encoding vector (pCMV6-neo) or with empty vector (pCMV6-neo) cell lysate ([…]) were loaded on 12% SDS-PAGE gel and electrophoresed for 90 min at 100V and transferred to PVDF membranes. […] N=4 by standard SDS-PAGE and immunoblots were analyzed with anti-DICAM (Goat; 1:100 dilution; sc-163102; Santa Cruz Biotechnology®); horseradish peroxidase-conjugated anti-goat (1:1,000 dilution; P00448; DakoCytomation®) and the ECL system (Amersham Biosciences®) were used to detect specific binding, and anti-actin (1:5,000 dilution; AC-15; MP Biomedicals®) served as a loading control. […]

B1: anti-DICAM monoclonal antibody clone 9E9 (antibody, mouse IgG1, V domains shown)
VH: EVQLVESGGGLVKPGGSLKLSCAASGFTFISYAMSWVRQTPEKRLEWVATISSGGSYTYYPHSVKGRFTISRDNARNTLYLQMSSLRSEDTAMYYCARLDGPSYAMDYWGQGTSVTVS
VL: QIVLTQSPAIMSAFLGEEITLTCSASSSVSYMHWYQQKSGTSPKLLIYSTSNLASGVPSRFSGSGSGTFYSLTISSVEAEDAADYYCHQWSSYRTFGGGTKLEIKR
notes: Mouse hybridoma antibody, murine IgG1 heavy chain and kappa light chain; also called mAb clone 9E9; hybridoma clone 9E9
Does B1 bind?
Result: binds
